# T1: ANG2 (human, UniProt O15123 19-496, limits assumed)
# T1 sequence: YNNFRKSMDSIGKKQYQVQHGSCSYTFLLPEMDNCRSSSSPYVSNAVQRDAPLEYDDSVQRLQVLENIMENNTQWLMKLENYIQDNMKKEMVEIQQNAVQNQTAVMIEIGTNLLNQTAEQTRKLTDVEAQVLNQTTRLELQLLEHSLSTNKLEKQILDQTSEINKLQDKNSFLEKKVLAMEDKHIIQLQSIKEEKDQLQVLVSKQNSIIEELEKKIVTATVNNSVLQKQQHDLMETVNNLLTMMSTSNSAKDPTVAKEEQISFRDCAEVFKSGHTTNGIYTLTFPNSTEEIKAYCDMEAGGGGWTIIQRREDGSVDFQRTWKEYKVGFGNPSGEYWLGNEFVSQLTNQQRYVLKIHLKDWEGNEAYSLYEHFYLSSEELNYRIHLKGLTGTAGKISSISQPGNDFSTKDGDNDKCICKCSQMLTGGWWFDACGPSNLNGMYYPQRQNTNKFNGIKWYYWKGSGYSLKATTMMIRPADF
# T2: human Ang2-RBD-muFc (human, UniProt O15123 275-496, limits assumed)
# T2 construct: also called Human ANG2 (KinExA); not shown: murine Fc (muFc)
# T2 sequence: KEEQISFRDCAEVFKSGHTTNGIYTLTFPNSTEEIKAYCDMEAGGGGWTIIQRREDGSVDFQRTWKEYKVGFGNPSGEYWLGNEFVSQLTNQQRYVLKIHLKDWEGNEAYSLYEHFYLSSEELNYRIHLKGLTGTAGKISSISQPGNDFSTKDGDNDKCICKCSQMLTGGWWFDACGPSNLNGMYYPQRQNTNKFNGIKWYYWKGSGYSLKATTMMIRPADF
# Experiments:
# [1] = biological target: T1, ANG2; assay: cell-based or functional assay
# [2] = biological target: T2, human Ang2-RBD-muFc; assay: KinExA, human ANG2 (Ang2-RBD-muFc) by the table's title; the column's head prints VEGFA-121
# Method: All KinExA® experiments were performed at room temperature (RT) using PBS pH 7.4 with 0.01% BSA and 0.01% Tween® 20 (BioRad, #161-0781) as running buffer. […] A flow rate of 0.25 ml/min was used. A constant amount of Ang2-RBD-muFc (50 pM and in a second experiment 500 pM) was titrated with tested antibody by twofold serial dilution starting at 4 nM (concentration range 1.95 pM-4000 pM). Antigen-antibody complexes were incubated at RT for at least 8 h to allow equilibrium to be reached. Equilibrated mixtures were then drawn through a column of Anti-Ang2 antibody (MAB098) coupled beads in the KinExA® system at a volume of 750 μl for 50 pM constant Ang2 and at a volume of 188 μl for 500 pM constant Ang2 permitting unbound Ang2 to be captured by the beads without perturbing the equilibrium state of the solution. Bound Ang2 was detected using a second biotinylated anti-Ang2 antibody (BAM0981) with a concentration of 250 ng/ml and following by an injection of 250 ng/ml Streptavidin Alexa Fluor™ 647 conjugate in sample buffer. Each sample was measured in duplicates for all equilibrium experiments. The KD was obtained from non-linear regression analysis of the data using a one-site homogeneous binding model contained within the KinExA® software (Version 4.0.11) using the “standard analysis” method. […]
binder,measurement,setting,value
"Nesvacumab-analogue (antibody, human IgG1, kappa, L234A L235A, V domains shown, also called Nesvacumab (INN); Nesvacumab Mab) VH: AVQLVASGGGLVQPGGSLRLSCAASGFTFSSYDIHWVRQATGKGLEWVSAIGPAGDTYYPGSVKGRFTISRENAKNSLYLQMNSLRAGDTAVYYCARGLITFGGLIAPFDYWGQGTLVTVSS VL: IVLTQSPGTLSLSPGERATLSCRASQSVSSTYLAWYQQKPGQAPRLLIYGASSRATGIPDRFSGSGSGTDFTLTISRLEPEDFAVYYCQHYDNSQTFGQGTKVEIKR","IC50, pTie2-Assay (Tie2 phosphorylation in Hek293 cells expressing Tie2, stimulated with Ang-2)",[1],6 nM
same,Kd,[2],0.01 nM

# Reference: patent US20220073599A1 (Hoffmann-La Roche, published 2022)
